Laboratory results taken from publication PMC9324360.

Legend:
Experiment in all cases: MST
Conditions in all cases: 0.5 mM Mg2+; MST: 10 mM Tris-HCl pH 8.5, 0.5 mM MgSO4, 50 mM KCl, 10 mM (NH4)2SO4, 0.05% Tween 20; 1 nM oligo; 10 min at 55 °C, measured at 25 °C
[1] = tested on: Tt72 DNA polymerase WT (Thermus thermophilus MAT72 phage vB_Tt72)
[2] = tested on: Tt72 pol D15A (Thermus thermophilus MAT72 phage vB_Tt72)
[3] = tested on: Tt72 pol D184A (Thermus thermophilus MAT72 phage vB_Tt72)
[4] = tested on: Tt72 pol D78A (exo-) (Thermus thermophilus MAT72 phage vB_Tt72)
[5] = tested on: Tt72 pol D78A/D384A (Thermus thermophilus MAT72 phage vB_Tt72)
[6] = tested on: Tt72 pol D78A/D615A (Thermus thermophilus MAT72 phage vB_Tt72)
[7] = tested on: Tt72 pol D78A/E389A (Thermus thermophilus MAT72 phage vB_Tt72)
[8] = tested on: Tt72 pol D78A/S616A (Thermus thermophilus MAT72 phage vB_Tt72)
[9] = tested on: Tt72 pol E17A (Thermus thermophilus MAT72 phage vB_Tt72)
[10] = tested on: Tt72 pol L27A (Thermus thermophilus MAT72 phage vB_Tt72)
[11] = tested on: Tt72 pol Y180A (Thermus thermophilus MAT72 phage vB_Tt72)

With “TGGCTGCTTCTAAGCCAACATCCT / CTAGTGAGGATGTTGGCTTAGAAGCAGCCA [polTt72-Cy5/polTt72-long primer/template]” the Kd [1] was 2 nM, the Kd [2] was 232 nM and the Kd [3] was 144 nM. It also gave a Kd [4] of 109 nM, a Kd [5] of 100 nM and a Kd [6] of 78 nM. For the same sequence, the Kd [7] was 68 nM, the Kd [8] was 129 nM and the Kd [9] was 529 nM. The Kd [10] was 32 nM and the Kd [11] was 229 nM.
